Substrate in this data set: O=[N+]([O-])c1ccc(O[C@@H]2O[C@H](CO)[C@@H](O)[C@H](O)[C@H]2O)cc1
In words: purified protein. The following applies: pH 6.0 sodium phosphate 50 mM, 37 °C, 0.1-5 mM substrate.

B1: BglF3 (Flavobacterium johnsoniae UW101) (protein)
chain: KNKMIYLSAALVFAFFTSCKNETQTSASNSSQTEEYVGKEISTDHDAEIDKLISQMTLEEKIGMLHGNSMFANAGVKRLGIPELKMADGPLGVREEISRDNWAPAGWTNDFATYYPAGGALAATWNAEMAHTFGTSLGEELRARDKDMLLSPAINMVRTPLGGRTYEYMSEDPFLNKKIAVPLVVGLQEKDVMACVKHYAANNQETNRDFVDVQIDERTLREIYLPAFEATVKEAKAYSIMGAYNKFRGEYLCENDYMLNKILRDEWGFKGVVVSDWAAVHSTAKSLKNGLDIEMGTPKPFNEFFLADKLIAAVKSGEVSEKEIDLHVKRILRVLFQVKAMGGGERAKGSIATEAHYQDAYKIAAEAIILLKNENNALPLKLDGVKSIAVIGNNATKKNALGGFGAGVKTKREVTPLEGLKNRLPSSVKINYAEGYLEKYEEKNKGNLGNITSTGPVTIDKLDPAKVQEAVEAAKKSDVAIIFAGSNRDYETEASDRRDLHLPFGQEELIKKVIEANPKTIVVMIAGAPFDLNEVSQKSSALVWSWFNGSEGGNALADVILGKVNPSGKLPWTMPKQLKDSPAHATNSFPGDKAVNYAEGILIGYRWFDTKNVAPLYPFGYGLSYTTFALDNAKTDKDSYAQNDVIEVTVDVKNTGKVDGKEVVQLYTSKSDSKITRAAQELKGFKKADVKAGGSEKITIKVPVKELAYYDVAAKKWTVEPGKYTIKLGTSSRDIKKEINFTIK
As for B1, the Km stood at 910 ± 20 µM.

Values taken from PMC3659600.
